Data from paper PMC6854463.

Biological target: MPER-TM2 (gp41 residues 630-711, containing the complete TM region) (HIV-1)
Test: not stated; MPER-TM2 solubilized in a buffer containing β-D-octyl glucoside (β-OG); oligomeric state (Figure S5B)

MPER-TM2 (gp41 residues 630-711, containing the complete TM region) (domain or fragment)
stoichiometry N: 3
